In experiment [1] the target is T1, StrepII-tagged ROR1-extracellular domain (human) (human, UniProt Q01973 30-406).
T1 construct: extracellular domain; also called ROR1-strep; soluble ROR1-strep
The experiment in a line: SPR (Biacore T200), purified mAb captured by goat anti-human Fc-gamma IgG, ROR1-strep 1.25 to 20 nM, 120 s association, 1000 s dissociation, 1:1 model. How it is done: FIG. 13: Comparison of affinities of humanized and parental R12 mAbs determined by SPR using purified antibody. The three humanized R12 mAbs indicated were expressed at large scale in HEK293T cells, purified by Protein A affinity chromatography and subjected to SPR analysis for determination of affinity towards soluble ROR1-strep. Antibodies were captured using a goat α-human Fc-gamma-specific IgG. ROR1-strep was diluted in running buffer using 2-fold serial dilutions ranging from 1.25 nM to 20 nM. Association was measured 120 s, and dissociation was followed for 1000 s. Capture levels ranged from 26.9 RU to 54.1 RU.
Background: Surface plasmon resonance follows binding to a sensor surface in real time, without labels.

The target in experiment [2] is T1, StrepII-tagged ROR1-extracellular …. The experiment is described as follows: SPR (Biacore T200), IgG from HEK293T supernatant captured by anti-human Fc, ROR1-strep 2.5-20 nM as analyte, 1:1 model, 25 C. How it is done:
For initial determination of huR12 clone affinities and parental R12 using transient HEK293T supernatants, IgG expression vectors were transiently transfected into 293T cells and IgG titers in supernatants were quantified by ELISA. For SPR, supernatants were diluted to 1 μg/ml IgG with running buffer (HBS-EP+ pH 7.4 (10 mM HEPES, 150 mM NaCl, 3 mM EDTA, 0.05% Tween 20)) and captured for 200 s with a flow of 30 μl/min. ROR1-strep was diluted in running buffer using 2-fold serial dilutions ranging from 20 nM to 2.5 nM. Association was measured at a flow of 30 μl/min for 120 s, and dissociation was followed for 1000 s. Capture levels ranged from 26.9 RU to 54.1 RU.

Experiment [3] shares this target. The experiment is described as follows: SPR (Biacore T200), purified mAb captured by anti-human Fc, ROR1-strep 2.5-20 nM as analyte, 1:1 model, 25 C. The protocol: ROR1-strep was diluted in running buffer using 2-fold serial dilutions ranging from 20 nM to 2.5 nM. Association was measured at a flow of 30 μl/min for 120 s, and dissociation was followed for 200 s. Curves were fitted using 30 s dissociation due to upper plateau formation at later timepoints. Capture levels ranged from 29.1 RU to 57.7 RU.

For twelve molecules, Kd, koff and kon results are on record in US20190153092A1 (NBE THERAPEUTICS, published 2019).

T1 sequence (Q01973 other isoform, or with tags, fused parts or gaps): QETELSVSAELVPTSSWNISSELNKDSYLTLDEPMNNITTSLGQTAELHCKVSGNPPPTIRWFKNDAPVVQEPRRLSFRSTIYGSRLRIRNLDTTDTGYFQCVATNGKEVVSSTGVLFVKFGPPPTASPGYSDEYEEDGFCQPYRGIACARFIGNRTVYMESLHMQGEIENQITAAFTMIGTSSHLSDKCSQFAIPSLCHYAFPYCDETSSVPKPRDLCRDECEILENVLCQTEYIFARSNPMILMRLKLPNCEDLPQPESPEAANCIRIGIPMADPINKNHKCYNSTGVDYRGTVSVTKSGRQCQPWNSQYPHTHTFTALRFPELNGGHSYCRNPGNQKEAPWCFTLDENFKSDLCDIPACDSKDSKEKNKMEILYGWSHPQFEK

B1: huR12_4, humanized from R12 (antibody, human IgG1, V domains shown)
VH: QVQLVESGGELVQPGGSLTLSCKASGFDFSAYYMSWVRQAPGKGLEWIATIYPSSGKTYYAASVQGRFTISADNAKNTVYLQMNSLTAADTATYFCARDSYADDGALFNIWGKGTLVTVSS
VL: QLVLTQSPSVSAALGSSAKITCTLSSAHKTDTIDWYQQLAGQAPRYLMYVQSDGSYEKRSGVPDRFSGSASGADRYLAISRVQADDEADYYCGADYIGGYVFGGGTQLTVLG
notes: Human IgG1 with lambda light chain
Regarding B1, the Kd (commonly the free concentration of one partner at which half of the binding sites on the other are occupied at equilibrium, for simple one-to-one binding) in experiment [1] was determined as 0.0571 nM. In experiment [2], binding was characterised by a dissociation constant (Kd) of 0.091 nM; the koff (as a rule, the rate constant with which the complex falls apart) was determined as 9.93e-05 s⁻¹; the kon – broadly, the second-order rate constant of association – came out at 1.09e+06 M⁻¹ s⁻¹.

B2: huR12_7, humanized from R12 (antibody, human IgG1, V domains shown)
VH: QVQLVESGGELVQPGGSLTLSCKASGFDFSAYYMSWVRQAPGKGLEWIATIYPSSGKTYYAASVQGRFTISADNAKNTVSLQMNSLTAADTATYFCARDSYADDGALFNIWGKGTLVTVSS
VL: QLVLTQSPSVSAALGSSAKITCTLSSAHKTDTIDWYQQLAGQAPRYLMYVQSDGSYEKRSGVPDRFSGSSSGADRYLIISSVQADDEADYYCGADYIGGYVFGGGTQLTVLG
notes: as for B1
On to B2, for which, in experiment [1], the Kd was 0.051 nM. Besides, in experiment [2], binding was characterised by a dissociation constant (Kd) of 0.11 nM, the koff came to 0.000116 s⁻¹ and the on-rate constant (kon) worked out at 1.05e+06 M⁻¹ s⁻¹.

B3: Chimeric mAb R12 (rabbit variable regions, human IgG1/lambda constant regions) (antibody, V domains shown)
VH: QEQLVESGGRLVTPGGSLTLSCKASGFDFSAYYMSWVRQAPGKGLEWIATIYPSSGKTYYATWVNGRFTISSDNAQNTVDLQMNSLTAADRATYFCARDSYADDGALFNIWGPGTLVTISS
VL: ELVLTQSPSVSAALGSPAKITCTLSSAHKTDTIDWYQQLQGEAPRYLMQVQSDGSYTKRPGVPDRFSGSSSGADRYLIIPSVQADDEADYYCGADYIGGYVFGGGTQLTVT
notes: Full-length IgG1 with human gamma 1 and lambda constant regions; also called parental mAb R12
As for B3, the affinity in experiment [1], expressed as Kd, was 0.427 nM. In experiment [2], this molecule yielded a Kd of 1.03 nM, a koff of 0.000361 s⁻¹ and a kon of 349000 M⁻¹ s⁻¹.

B4: huR12_11, humanized from R12 (antibody, human IgG1, V domains shown)
VH: QVQLVESGGALVQPGGSLTLSCKASGFDFSAYYMSWVRQAPGKGLEWIATIYPSSGKTYYAASVQGRFTISADNAKNTVYLQMNSLTAADTATYFCARDSYADDGALFNIWGQGTLVTVSS
VL: QLVLTQSPSVSAALGSSAKITCTLSSAHKTDTIDWYQQLAGQAPRYLMYVQSDGSYEKRSGVPDRFSGSSSGADRYLIISSVQADDEADYYCGADYIGGYVFGGGTQLTVG
notes: as for B1
Regarding B4, binding in experiment [1] was characterised by a dissociation constant (Kd) of 0.0616 nM. In experiment [2], this molecule registered a Kd of 0.084 nM, a koff of 9.65e-05 s⁻¹ and a kon of 1.15e+06 M⁻¹ s⁻¹.

B5: huR12_16, humanized from R12 (antibody, human IgG1, V domains shown)
VH: QVQLVESGGELVTPGGSLTLSCKASGFDFSAYYMSWVRQAPGKGLEWIASIYPSSGKTYYAAAVQGRFTISADNAKNTVYLQMNSLTAADTATYFCARDSYADDGALFNIWGQGTLVTVSS
VL: QLVLTQSPSVSAALGSSAKITCTLSSAHKTDTIDWYQQLAGQAPRYLMYVQSDGSYEKRSGVPDRFSGSSSGADRYLIISSVQADDEADYYCGADYIGGYVFGGGTQLTVG
notes: as for B1
With B5, in experiment [2], the affinity, expressed as Kd, was 0.092 nM; the koff turned out to be 8.79e-05 s⁻¹; the kon was found to be 960000 M⁻¹ s⁻¹.

B6: rbQ11, humanized from R11 (antibody, human IgG1, V domains shown)
VH: EVQLVQSGGGLVQPGGSLRLSCAASGSDINDYPISWVRQAPGKGLEWVSFINSGGSTWYASWVKGRFTISRDNAKNSLYLQMNSLRDDDTATYFCARGYSTYYGDFNIWGQGTLVTVSS
VL: DIVMTQSPSSLSASVGDRVTITCQASQSIDSNLAWFQQKPGKAPKSLIYRASNLASGVPSKFSGSGSGTDFTLTISSLQREDAATYYCLGGVGNVSYRTSFGGGTKVEIK
notes: Human IgG1/kappa, expressed in 293T cells and purified; also called huR11-Q11; rbQ11-32
In experiment [3], B6 had a Kd of 6.1 nM, an off-rate constant (koff) of 0.00498 s⁻¹ and a kon of 821000 M⁻¹ s⁻¹.

B7: rbD4, humanized from R11 (antibody, human IgG1, V domains shown)
VH: EVQLVESGGGLVQPGRSLRLSCTASGSDINDYPISWFRQAPGKGLEWVGFINSGGSTWYASWVKGRFTISRDDSKSIAYLQMNSLKTDDTATYFCARGYSTYYGDFNIWGQGTTVTVSS
VL: DVVMTQSPSSLSASVGDRVTITCQASQSIDSNLAWFQQKPGKAPNLLIYRASNLASGVPSRFSGSGSGTEFTLTISSLQREDAATYYCLGGVGNVSYRTSFGQGTKVEIK
notes: Human IgG1/kappa, expressed in 293T cells and purified; also called huR11-D4; rbD4-32
Turning to B7, in experiment [3], the affinity, expressed as Kd, was 9 nM; the koff was found to be 0.0071 s⁻¹; the kon was determined as 785000 M⁻¹ s⁻¹.

B8: rbQ12, humanized from R11 (antibody, human IgG1, V domains shown)
VH: EVQLVESGGGLVQPGGSLRLSCAASGSDINDYPISWVRQAPGKGLEWVSFINSGGSTWYASWVKGRFTISRDNAKNSLYLQMNSLRADDTATYFCARGYSTYYGDFNIWGQGTMVTVSS
VL: EIVMTQSPSSLSASVGDRVTITCQASQSIDSNLAWFQQKPGKAPNLLIYRASNLASGVPSRFSGSGSGTEFTLTISSLQREDAATYYCLGGVGNVSYRTSFGQGTKVEIK
notes: Human IgG1/kappa, expressed in 293T cells and purified; also called huR11-Q12; rbQ12-40
For the molecule B8, in experiment [3], the Kd amounted to 14.2 nM, the koff was found to be 0.0104 s⁻¹ and the kon was determined as 733000 M⁻¹ s⁻¹.

B9: chimeric mAb 2A2 (mouse variable regions, human IgG1/kappa constant regions) (antibody, V domains shown)
VH: QVQLQQSGAELVRPGASVTLSCKASGYTFSDYEMHWVIQTPVHGLEWIGAIDPETGGTAYNQKFKGKAILTADKSSSTAYMELRSLTSEDSAVYYCTGYYDYDSFTYWGQGTLVTVSA
VL: DIVMTQSQKIMSTTVGDRVSITCKASQNVDAAVAWYQQKPGQSPKLLIYSASNRYTGVPDRFTGSGSGTDFTLTISNMQSEDLADYFCQQYDIYPYTFGGGTKLEIK
notes: also called chim 2A2; parental mAb 2A2
In experiment [3], B9 showed a Kd of 5.7 nM, a koff of 0.00968 s⁻¹ and a kon of 1.69e+06 M⁻¹ s⁻¹.

B10: hu2A2-D23, humanized from 2A2 (antibody, human IgG1, V domains shown)
VH: QVQLVESGAEVKKPGASVKLSCKASGYTFSDYEMHWVRQAPGQRLEWMGAIDPETGGTAYNQKFKGRVTITVDKSASTAYMELSSLRSEDTAVYYCTGYYDYDSFTYWGPGTTVTVSS
VL: DIVMTQSPSTLSASVGDRVTITCKASQNVDAAVAWYQQKPGTAPKLLIYSASNRYTGVPSRFSGSGSGTEFTLTISSLQSEDLADYFCQQYDIYPYTFGQGTKLEIK
notes: Human IgG1/kappa, expressed in 293T cells and purified; also called msD23-19
Consider B10, for which, in experiment [3], binding was characterised by a dissociation constant (Kd) of 8 nM, the koff came out at 0.0138 s⁻¹ and the kon came out at 1.72e+06 M⁻¹ s⁻¹.

B11: hu2A2b-Q11, humanized from 2A2 (antibody, human IgG1, V domains shown)
VH: EVQLVQSGAEVKKPGASVKVSCKASGYTFSDYEMHWVRQAPGQGLEWLGAIDPETGGTAYNQKFKGRVTMTGDTSISTAYMELSRLTSDDTAVYYCTGYYDYDSFTYWGQGTLVSVSS
VL: DIQMTQSPSSLSTSVGDRVTITCKASQNVDAAVAWYQQKPGKAPKLLIYSASNRYTGVASRFSGSGSGTDFTFTISSLQSEDLADYFCQQYDIYPYTFGQGTKLEIK
notes: also called hu2A2-Q11; msQ11-3
B11: in experiment [3], the affinity, expressed as Kd, was 9.9 nM; the koff is 0.0173 s⁻¹; the kon was 1.75e+06 M⁻¹ s⁻¹.

B12: hu2A2-D16, humanized from 2A2 (antibody, human IgG1, V domains shown)
VH: EVQLVESGAEVKKPGASVKVSCKASGYTFSDYEMHWVRQAPGQGLEWVGAIDPETGGTAYNQKFKGRVTMTRDTSTSTVYMELSSLRSEDTAVYYCTGYYDYDSFTYWGQGTLVTVSS
VL: DIQMTQSPSSLSASVGDRVTITCKASQNVDAAVAWYQQKPGKAPKLLIYSASNRYTGIPTRFSGSGSGTDFTLTISSLQSEDLADYFCQQYDIYPYTFGQGTKVEIK
notes: Human IgG1/kappa, expressed in 293T cells and purified; also called msD16-7
In experiment [3], B12 registered a Kd of 10.9 nM, an off-rate (koff) of 0.0189 s⁻¹ and a kon of 1.73e+06 M⁻¹ s⁻¹.
